{"source": "patent US20050084449A1", "about": "(CELLDEX THERAPEUTICS, published 2005)", "key": {"[1]": {"biological_target": "T1, TIM-1 antigen, cell membrane-bound (on ACHN, CAKI-2, CAKI-1 renal cancer cells and polarized/activated human … (human, UniProt Q96D42 21-364))", "T1 construct": "whole, on cells; Endogenous protein on cells; also called HAVcr-1; KIM-1", "T1 sequence (looked up)": "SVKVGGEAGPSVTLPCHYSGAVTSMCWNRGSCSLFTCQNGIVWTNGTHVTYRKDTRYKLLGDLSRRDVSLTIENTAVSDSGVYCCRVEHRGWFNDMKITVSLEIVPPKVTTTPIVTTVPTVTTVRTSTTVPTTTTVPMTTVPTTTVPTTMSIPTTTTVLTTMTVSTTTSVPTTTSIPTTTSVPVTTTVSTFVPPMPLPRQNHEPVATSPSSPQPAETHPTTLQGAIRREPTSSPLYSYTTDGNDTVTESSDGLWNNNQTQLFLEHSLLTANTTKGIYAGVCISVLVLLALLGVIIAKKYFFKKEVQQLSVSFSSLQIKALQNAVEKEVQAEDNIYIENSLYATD", "assay": "FACS on polarized human CD4+ Th2 cells, 10 ug/mL mAb"}, "[2]": {"biological_target": "T1, TIM-1 antigen, cell membrane-bound (on …)", "assay": "FACS on ACHN cells, normalized to isotype control pK16"}, "[3]": {"biological_target": "T1, TIM-1 antigen, cell membrane-bound (on …)", "assay": "FACS on CAKI-2 cells, normalized to isotype control pK16"}, "[4]": {"biological_target": "T2, TIM-1 peptide D) PMPLPRQN (human)", "T2 peptide": "PMPLPRQN", "assay": "peptide ELISA"}, "[5]": {"biological_target": "T3, TIM-1 peptide G) PRQNHEPVAT (human)", "T3 peptide": "PRQNHEPVAT", "assay": "peptide ELISA"}, "TIM-1 peptide E) PMPLPR": {"biological_target": "T4, TIM-1 peptide E) PMPLPR (human)", "T4 peptide": "PMPLPR", "assay": "peptide ELISA"}, "TIM-1 peptide I) HEPVAT": {"biological_target": "T5, TIM-1 peptide I) HEPVAT (human)", "T5 peptide": "HEPVAT", "assay": "peptide ELISA"}, "[6]": {"biological_target": "T6, TIM-1 peptide H) QNHEPVAT (human)", "T6 peptide": "QNHEPVAT", "assay": "peptide ELISA"}, "[7]": {"biological_target": "T7, synthetic peptide PMPLARQNHE (SEQ ID NO:99)", "T7 peptide": "PMPLARQNHE", "assay": "peptide ELISA, alanine scan"}, "[8]": {"biological_target": "T8, synthetic peptide PMPLPRQAHE (SEQ ID NO:102)", "T8 peptide": "PMPLPRQAHE", "assay": "peptide ELISA, alanine scan"}}, "data": [{"binder": "anti-TIM-1 mAb 1.29 (antibody, human IgG2, V domains shown) VH: QVQLQESGPGLVKPSETLSLTCTVSGGSVSSGGYYWSWIRQPPGKGLEWIGFIYYTGSTNYNPSLKSRVSISVDTSKNQFSLKLSSVTAADAAVYYCARDYDWSFHFDYWGQGTLVTVSS VL: DIQMTQSPSSLSASIGDRVTITCRASQGIRNDLGWYQQKPGKAPKRLIYAASSLQSGVPSRFSGSGSGTEFTLTISSLQPEDFATYYCLQHNSYPLTFGGGTKVEIKR", "values": [{"measurement": "Geometric mean of fluorescence intensity", "setting": "[1]", "result": 22.3}, {"measurement": "Geo Mean Ratio (relative to negative control)", "setting": "[2]", "result": 17.9, "unit": "ratio"}]}, {"binder": "anti-TIM-1 mAb 2.59 (antibody, human IgG4, V domains shown, Biotinylated for IHC) VH: QSGPRLVKPSQTLSLTCTVSGGSISSDGYYWSWIRQHPGKGLEWIGYIYYSGSTFYNPSLKSRVAISVDTSKNQFSLKLSSVTAADTAVYYCARESPHSSNWYSGFDCWGQGTLVTVSS VL: TQSPDFQSVTPKEKVTITCRASQSIGSRLHWYQQKPDQSPKLLIKYASQSFSGVPSRFSGSGSGTDFTLTINSLEAEDAATYYCHQSSNLPFTFGPGTKVDIKR", "values": [{"measurement": "Geometric mean of fluorescence intensity", "setting": "[1]", "result": 22}, {"measurement": "Geo Mean Ratio (relative to negative control)", "setting": "[2]", "result": 15.2, "unit": "ratio"}, {"measurement": "Geo Mean Ratio (relative to negative control)", "setting": "[3]", "result": 7.7, "unit": "ratio"}]}, {"binder": "anti-TIM-1 mAb 2.16 (antibody, V domains shown, also called 2.16.1 (subclone)) VH: EQSGGGVVKPGGSLRLSCAASGFTFSNAWMTWVRQAPGKGLEWVGRIKRRTDGGTTDYAAPVKGRFTISRDDSKNTLYLQMNNLKNEDTAVYYCTSVDNDVDYWGQGTLVTVSS VL: not shown", "values": [{"measurement": "Geo Mean Ratio (relative to negative control)", "setting": "[2]", "result": 7.9, "unit": "ratio"}]}, {"binder": "anti-TIM-1 mAb 2.70 (antibody, V domains shown, Subclone 2.70.2 is treated as the same antibody because its printed variable regions are identical; also called 2.70.2 (subclone); TIM-1 2.70.2) VH: QVQLVESGGGVVQPGRSLRLSCAASGFIFSRYGMHWVRQAPGKGLKWVAVIWYDGSNKLYADSVKGRFTISRDNSKNTLYLQMNSLRAEDTAVYYCARDYYDNSRHHWGFDYWGQGTLVTVSS VL: DIVMTQTPLSLPVTPGEPASISCRSSRSLLDSDDGNTYLDWYLQKPGQSPQLLIYTLSYRASGVPDRFSGSGSGTDFTLKISRVEAEDVGVYYCMQRVEFPITFGQGTRLEIKR", "values": [{"measurement": "binding result", "setting": "[4]", "result": "no binding"}, {"measurement": "binding result", "setting": "[5]", "result": "no binding"}, {"measurement": "binding result", "setting": "TIM-1 peptide E) PMPLPR", "result": "no binding"}, {"measurement": "binding result", "setting": "TIM-1 peptide I) HEPVAT", "result": "no binding"}, {"measurement": "binding result", "setting": "[6]", "result": "no binding"}, {"measurement": "Geometric mean of fluorescence intensity", "setting": "[1]", "result": 27.8}, {"measurement": "Geo Mean Ratio (relative to negative control)", "setting": "[2]", "result": 19.4, "unit": "ratio"}, {"measurement": "Geo Mean Ratio (relative to negative control)", "setting": "[3]", "result": 8.8, "unit": "ratio"}, {"measurement": "binding result", "setting": "[7]", "result": "no binding"}, {"measurement": "binding result", "setting": "[8]", "result": "no binding"}]}]}
